US7485712

Tests used:
[1] = biological target: taxol-stabilised microtubules (porcine brain tubulin) (porcine) (UniProt P02550); experiment: binding to taxol stabilized microtubules (30 µM tubulin dimers) after p110MARK phosphorylation
[2] = biological target: microtubules assembled from porcine brain PC-tubulin (not taxol-stabilised) (porcine) (UniProt P02550); experiment: cell-based or functional assay
[3] = biological target: taxol-stabilised microtubules (porcine brain tubulin) (porcine) (UniProt P02550); experiment: binding to taxol stabilized microtubules (30 µM tubulin dimers), binding curve

MAP4, phosphorylated with NPK-110, sequence (P27546 630-1125): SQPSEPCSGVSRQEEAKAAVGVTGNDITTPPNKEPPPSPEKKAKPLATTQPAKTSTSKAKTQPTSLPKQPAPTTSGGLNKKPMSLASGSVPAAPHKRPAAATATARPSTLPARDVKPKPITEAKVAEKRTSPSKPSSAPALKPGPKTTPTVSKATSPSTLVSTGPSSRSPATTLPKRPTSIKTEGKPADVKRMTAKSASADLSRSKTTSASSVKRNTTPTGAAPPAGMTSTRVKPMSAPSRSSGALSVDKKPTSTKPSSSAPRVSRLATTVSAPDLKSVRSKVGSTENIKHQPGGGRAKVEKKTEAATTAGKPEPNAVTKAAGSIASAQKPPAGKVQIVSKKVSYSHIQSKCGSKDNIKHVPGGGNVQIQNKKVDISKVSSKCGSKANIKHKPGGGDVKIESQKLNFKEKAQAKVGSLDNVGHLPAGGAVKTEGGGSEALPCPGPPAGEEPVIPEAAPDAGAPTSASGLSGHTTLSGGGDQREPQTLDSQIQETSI

Substance | Kd [1] [µM] | mean length of microtubules, against the control without ATP (fold of control) [2] | also measured
MAP2cA350, phosphorylated with p110MARK | 7 | – | –
MAP4, phosphorylated with NPK-110 | – | 0.5 | –
recombinant wild type MAP2c, non-phosphorylated | – | – | Kd [3]: 0.25 µM; saturation [3]: 17 µM; stoichiometry (MAP2c molecules per tubulin dimer) [3]: 0.5
MAP2cA319, phosphorylated with p110MARK | 7 | – | –

Further lines, with some results ahead:

Kd [1] [µM] | mean length of microtubules, against the control without ATP (fold of control) [2] | Substance | also measured
– | 0.5 | recombinant wild type MAP2c, phosphorylated with p110MARK (NPK-110) | –
– | 0.5 | MAP2, phosphorylated with NPK-110 | –
